{
  "source": "paper PMC7510979",
  "about": "“Kinetic and structural insights into enzymatic mechanism of succinic semialdehyde dehydrogenase from Cyanothece sp. ATCC51142” (PLoS ONE, 2020)",
  "molecules": {"B1": {"name": "cce4228 protein (succinic semialdehyde dehydrogenase, SSADH) (Crocosphaera subtropica ATCC 51142; S420A) (protein)", "chain": "MGIATVNPATGETVKIFEPITVDEIEVKLALAETTFRQYRKISLEQRSQWLKAAADILERDQQKLGEIMTLEMGKPIKGAIAEAKKCALVCRYYADNAAEFLKDVEAQTDASRSFIRYQPLGVILAVMPWNFPLWQVFRFAAPALMAGNVGILKHASNVPQCALAVEAILAEAGFPAGCFQTFLIGASEVESIINDPRVKAATLTGSEPAGASLASAAGKQIKKTVLELGGSDPFIVLESADIEAAATTAVTARMLNNGQSCIAAKRFILAESIADEFQALLLEKFKALKVGDPMEEDTDIGPLANASMLLELNQQVQETVTKGGTILLGGHIISDRPGYFYPPTILTDIPVDSPGYYDEFFGPVALLFRVKDIDQAIELANDTIFGLGASAWTNDSAEQDRLIEDIEAGCVFINGMVKADPRLPFGGIKRSGYGRELSIEGMQEFLNVKTVWIK", "notes": "full ORF in pET-28a, N-terminal 6xHis kept, E. coli BL21(DE3), Ni-NTA; native ca. 109 kDa"}, "B2": {"name": "cce4228 protein (succinic semialdehyde dehydrogenase, SSADH) (Crocosphaera subtropica ATCC 51142; R139A) (protein)", "chain": "B1 chain with R139A, A420S", "notes": "as for B1"}, "B3": {"name": "cce4228 protein (succinic semialdehyde dehydrogenase, SSADH) (Crocosphaera subtropica ATCC 51142; K154A) (protein)", "chain": "B1 chain with K154A, A420S", "notes": "as for B1"}, "B4": {"name": "cce4228 protein (succinic semialdehyde dehydrogenase, SSADH) (Crocosphaera subtropica ATCC 51142; S157E) (protein)", "chain": "B1 chain with S157E, A420S", "notes": "as for B1"}},
  "key": {"[1]": {"biological_target": "T1, cce4228 protein (succinic semialdehyde dehydrogenase, SSADH) (Crocosphaera subtropica, UniProt B1WSJ7)", "T1 construct": "gene gabD; full ORF in pET-28a, N-terminal 6xHis kept, E. coli BL21(DE3), Ni-NTA; native ca. 109 kDa", "T1 sequence (B1WSJ7 1-455)": "B1 chain with A420S", "assay": "initial velocity at […] nm", "type": "biochemical", "settings": "MgCl2, 50 mM CHES pH 9.0, 25°C, table marks wild-type data as from ref. 26, read-out: wild-type^e, cited from earlier work"}, "[2]": {"biological_target": "T1, cce4228 protein (succinic semialdehyde dehydrogenase, SSADH)", "assay": "initial velocity at […] nm, excess-substrate inhibition fit", "type": "biochemical", "settings": "0.5 mM NADP+, MgCl2, 50 mM CHES pH 9.0, 25°C; table marks wild-type data as from ref. 26; read-out: wild-type^e; cited from earlier work"}, "[3]": {"biological_target": "succinic semialdehyde dehydrogenase cce4228 protein from Cyanothece sp. ATCC51142 (wild-type, recombinant) (Cyanothece sp. ATCC51142)", "assay": "SEC; size exclusion chromatography of purified recombinant cce4228 with standard protein ladders; native mass compared with the subunit mass"}, "[4]": {"substrate": "O=CCCC(=O)O", "assay": "purified protein", "type": "biochemical, Crocosphaera subtropica", "settings": "MgCl2, 50 mM CHES pH 9.0, 25°C"}, "[5]": {"substrate": "NC(=O)c1ccc[n+]([C@@H]2O[C@H](COP(=O)(O)OP(=O)(O)OC[C@H]3O[C@@H](n4cnc5c(N)ncnc54)[C@H](O)[C@@H]3O)[C@@H](O)[C@H]2O)c1", "assay": "purified protein", "type": "biochemical, Crocosphaera subtropica", "settings": "0.02 mM SSA, MgCl2, 50 mM CHES pH 9.0, 25°C, varied: cofactor"}, "[6]": {"substrate": "NC(=O)c1ccc[n+]([C@@H]2O[C@H](COP(=O)(O)OP(=O)(O)OC[C@H]3O[C@@H](n4cnc5c(N)ncnc54)[C@H](OP(=O)(O)O)[C@@H]3O)[C@@H](O)[C@H]2O)c1", "assay": "purified protein", "type": "biochemical, Crocosphaera subtropica", "settings": "0.02 mM SSA, MgCl2, 50 mM CHES pH 9.0, 25°C, varied: cofactor"}},
  "note": "Positions count from the first letter of the chain named. Numbers in names are those of the source.",
  "data": [
    {"molecule": "NC(=O)c1ccc[n+]([C@@H]2O[C@H](COP(=O)(O)OP(=O)(O)OC[C@H]3O[C@@H](n4cnc5c(N)ncnc54)[C@H](OP(=O)(O)O)[C@@H]3O)[C@@H](O)[C@H]2O)c1", "note": "[NADP^+]", "values": [
      {"measurement": "Km", "setting": "[1]; 0.2 mM SSA", "result": "34 ± 2", "unit": "µM"}
    ]},
    {"molecule": "NC(=O)c1ccc[n+]([C@@H]2O[C@H](COP(=O)(O)OP(=O)(O)OC[C@H]3O[C@@H](n4cnc5c(N)ncnc54)[C@H](O)[C@@H]3O)[C@@H](O)[C@H]2O)c1", "note": "[NAD^+]", "values": [
      {"measurement": "Km", "setting": "[1]; 0.02 mM SSA", "result": "1700 ± 200", "unit": "µM"}
    ]},
    {"molecule": "O=CCCC(=O)O", "note": "[succinic semialdehyde]", "values": [
      {"measurement": "Km", "setting": "[2]", "result": "8 ± 3", "unit": "µM"}
    ]},
    {"molecule": "succinic semialdehyde dehydrogenase cce4228 protein from Cyanothece sp. ATCC51142 (wild-type, recombinant) (enzyme)", "values": [
      {"measurement": "stoichiometry N", "setting": "[3]", "result": 2}
    ]},
    {"molecule": "B1", "values": [
      {"measurement": "Km", "setting": "[4]; NADP+ as cofactor", "result": "70 ± 10", "unit": "µM"},
      {"measurement": "kcat", "setting": "[4]; NADP+ as cofactor", "result": "9.3 ± 0.9", "unit": "s⁻¹"}
    ]},
    {"molecule": "B2", "values": [
      {"measurement": "Km", "setting": "[4]; NADP+ as cofactor", "result": "112 ± 8", "unit": "µM"},
      {"measurement": "kcat", "setting": "[4]; NADP+ as cofactor", "result": "0.54 ± 0.01", "unit": "s⁻¹"}
    ]},
    {"molecule": "B3", "values": [
      {"measurement": "Km", "setting": "[5]", "result": "1500 ± 400", "unit": "µM"},
      {"measurement": "Km", "setting": "[4]; 8 mM NADP+", "result": "20 ± 10", "unit": "µM"},
      {"measurement": "kcat", "setting": "[4]; 8 mM NADP+", "result": "0.1 ± 0.05", "unit": "s⁻¹"},
      {"measurement": "kcat/Km", "setting": "[4]; 8 mM NADP+", "result": 5000, "unit": "M⁻¹ s⁻¹"},
      {"measurement": "Km", "setting": "[6]", "result": "6100 ± 1500", "unit": "µM"}
    ]},
    {"molecule": "B4", "values": [
      {"measurement": "Km", "setting": "[5]", "result": "510 ± 40", "unit": "µM"},
      {"measurement": "Km", "setting": "[4]; 10 mM NADP+", "result": "2.8 ± 0.7", "unit": "µM"},
      {"measurement": "kcat", "setting": "[4]; 10 mM NADP+", "result": "1.5 ± 0.1", "unit": "s⁻¹"},
      {"measurement": "kcat/Km", "setting": "[4]; 10 mM NADP+", "result": 535000, "unit": "M⁻¹ s⁻¹"},
      {"measurement": "Km", "setting": "[6]", "result": "1100 ± 200", "unit": "µM"}
    ]}
  ]
}
